Experiment [1] addresses rabbit skeletal muscle filamentous actin (rabbit) (UniProt P68135). Nature of the experiment: co-sedimentation.
Experiment [2] has as its target rabbit skeletal muscle G-actin (rabbit) (UniProt P68135). The experiment is described as follows: ITC. On the technique in general: ITC needs no label: the signal is the heat of the interaction.

The values that follow come from doi:10.1101/368720.

Consider phalloidin (peptide), for which, in experiment [1], the dissociation constant (Kd) (as a rule, a measure of binding affinity in units of concentration) turned out to be 8 nM and the stoichiometry N (phalloidin per actin monomer) came to 0.6.
In experiment [2], “occidiofungin (native, unmodified) (peptide)” came in with a Kd of 1000 nM and a stoichiometry N (occidiofungin per G-actin) of 1. Moreover, in experiment [1], the dissociation constant Kd is 1000 nM and the stoichiometry N (occidiofungin per actin monomer) came out at 24.
